assay: yeast display, Sf9 membrane polyspecificity reagent, FACS + sequencing; frameworks hold sequencing errors
How it was run: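 Galactose induction of a Saccharomyces cerevisiae BJ5465 synthetic nanobody display library ran 36–48 hours. The cells were then stained for 1 hour at 4 °C with 10% biotinylated, detergent-solubilized Sf9 membrane reagent, pulled down on streptavidin microbeads and FACS-sorted into low and high (top ~1%) gates on expression and reagent-binding fluorescence. Labels for polyreactivity follow the gate of origin.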

Sequence | polyreactivity (PSR sort gate)
QVQLVESGGGLVQAGCSLRLSCAASGRTFITNAMGWYRQAPGKVRELVAAISSGTGGRTYYADSVKGRFTISRDKAKNTVYFQMNSRKPEDTAVYYCAARSTKYYPYGYWGQGTQVTVTS | high polyreactivity
QVQLVESGGGLVQAGCSLRLSCAASGRTFPPYAMGWYRQAPRKERELVAAISRRAGTTYYADSVKGRFTISRDNAKNTVYLQMNSLKPEDTAVYYCAALSESSSYGYWGQGTQVTVSS | low polyreactivity
QVQLVESGGGLVQAGCSLRLSCAASGRTFVQYFMGWYRQAPGKERELVAAITSSGGSTYADSVKGRFTISRDNAKNTVFLHMNSLKPEDTAVYYCAADYLDGVGDVEHDYWGQGTQVTVSS | low polyreactivity
QVQLVESGGGLVQAGCSLRLSCAASGRTFYRYTMGWYRQAPGKERELVAAISISGGSTYYSDSVKGRFTISRDNEKNTFYLQMNSLKPEDSAVYYCAATSWGTYYRRLYYWGQATQVTVSS | high polyreactivity
QVQLVESGGGLVQAGCSLRLSCAASGRTFYYAMGWYRQAPGKERYADSVKGRFTISRDNAKNTVYLQMNSLKPEDTAVYYCAAKVPEPTSLDQSDYWGQGTQVTVSS | low polyreactivity
QVQLVESGGGLVQAGCSLRLSCAASGSIFAVYAMGWYRQATGKERELVAAISWSVGSTYYADSVKGRFTISRDHAKNTVYFQMNSLKPEDTAVYYCAAELAYYLDYVEYFTEIDLEGYWGQGTQVTVSS | low polyreactivity
QVQLVESGGGLVQAGCSLRLSCAASGSIFESYAMGWSRQAPGNERELVAAITSSGDSTYYADSVKGRFTITRDNAKNTVYIQMNSLKPEDTAVYYCANRVPTYISTADWGSRYDYWGQGTQVTVSS | low polyreactivity
QVQLVESGGGLVQAGCSLRLSCAASGSIFPFNAMGWYRQAPGKERELVAAITRSGGSTYYADSVKGRFTISRDNAKNTVYLQMNSLKPEDTAVYYCATDPEWPLPAYYYWGQGTQVTVSS | low polyreactivity
QVQLVESGGGLVQAGCSLRLSCAASGSIRGYAMGWSRQAPGKERELVASITWSGGSTYYADSVKGRFTMSRDNAKYTVYLQMHSLNPEDTAVYYCAASPSPYASVIRPYDYWGQGTQVTVSS | low polyreactivity
QVQLVESGGGLVQAGCSLRLSCAASGSTFFYYAMGWYRQSPGKERELVARISGGGSTNYADSVKGRFTISRDNAKNTVYLQMNSLKPEDTAVYYCAADRYDYYRYSYGRYGYWGQGTQVTVSS | high polyreactivity
QVQLVESGGGLVQAGCSLRLSCAASGSTFRYYAMGWYRQAPGKERELVAAINRSGGSTYYADSVKGRFTISRDNAKNTVYLQMYSLKPEDTAVYYCAAPWARHYSNPDDYWGQGTQVTVSS | high polyreactivity
QVQLVESGGGLVQAGCSLRLSCASSGSIFGRYAMGWYRQAPGKERELVAAISRGGSTNYADSVKGRFTISRDNAKNTVYLQLNSLKPEDTAVYYCNRKPYYVSSTRYDYWGQGSQVTVSS | high polyreactivity
QVQLVESGGGLVQAGCSLRLSCGASGSTFIHYAMGWYRQAPGTERELVAAITWDGSSTYYADSVKGRFTISLDNAKNTVYLQMNSLKPEDTAVYDCATDYAGQYPVDGQAIHDYWGQGTQVTVSS | low polyreactivity
QVQLVESGGGLVQAGCSLRLSSAASGIIFSHNAMGWYRQAPGKERELVDDIDWSGGSTYYADSVKGRFTISRDNAKNTVYLQMNSLKPEDTAVYYCAAEYRDYVPVNDTGDYWGQGTQVTVSS | low polyreactivity
QVQLVESGGGLVQAGCSLRLSWAASGRIFRPNSMGWYRQAPGKERELVAAITSNGGRTYYADSVKGRFTISRDNAKNTVYLQMNSLKPEDTAVYYCAKRVWYYSHKYDYWGQGTQVTVSS | high polyreactivity
QVQLVESGGGLVQAGCSRRLSWAASGSTFPDYVMGWDRQAPGKERELVAAISSIGGSTYYADSVKGRFTISRDNAKNTVYLQMNSLKPEDSAVYYCAAENSYFYPFDYWGQGTQVTVSS | low polyreactivity
QVQLVESGGGLVQAGCSVRLSCAASGSFFVLNSMGWYRQAPGKERELVAAIDESGGGTYYADSVKGRFTISRDNAKNTVYLQMNSLKPEDTAVYYCAADTLAPRAYDYWGQGTQVTVSS | low polyreactivity
QVQLVESGGGLVQAGGCLRLSCAASGFIFDSNAMGWYRQAPGKERELVAAISRRGGSTYYADSVKGRFTISRDNAKNTVYVHMNSLKPEYTSVYYCNAEYGSHVKYGYWGQGTQVTVSS | high polyreactivity
QVQLVESGGGLVQAGGCLRLSCAASGFIFRRNALGWYSEAPGKERELVAAMGSRGTATDYADSVKGRFTISRDNAKKTVYLQMNRLNPEDTAVDYCAKSVVAWGPNFRPNHTRGYYWGQGTQATVSS | low polyreactivity
QVQLVESGGGLVQAGGCLRLSCAASGLIFIKYTMGWYRQAPGKERELVAVISGSGGSTYYADSVKGRFTISRDNAKNTVYLQMNSLKPEDTAVYYCAARSYALGYGGGYWGQGTQVTVSS | high polyreactivity

Sequence | polyreactivity (PSR sort gate)
QVQLVESGGGLVQAGGCLRLSCAASGRTFYRNVMGWYRQAPGKEREWVGAISSRGGSTYYADSVKGRFTISRDNAKNTVYLQMNSLKPEDTAVYYCAAEGTYYGSDYWGQGTQVTVSS | high polyreactivity
QVQLVESGGGLVQAGGCLRLSCAASGSTFPRNAMGWYRQAPGKERELVATITSSGGGTYYADSVKGRFTISRDNAKNTVYLQMNILKPEDTAVYYCNADGPAGDAFDYCGQGTQVTVSS | low polyreactivity
QVQLVESGGGLVQAGGCLRLSCAASGSTFRYYAMGWYRQAPGKERELVAAIYGGGTTYYADSVKGRFTISRDNAKNTVYLQLNSLKPEDTAVYYCAASILFSYYGRDDYWGQGTQVTVSS | low polyreactivity
QVQLVESGGGLVQAGGCLRLSCAASGSTFYVYDMGWYRQAPGKERELVAAMSKRRGTTYYADSVKGRFTISRDNAKNTVYLQMNSLKPEDTAVYYCAAVFRSPSAGYQGGYWGQGSQVTVSS | high polyreactivity
QVQLVESGGGLVQAGGFLRLSCASSGSTFIYYAMGWYREAPGKERELVAAISWSGGRTYYADAVKGRFTISRDNAKNTVYLQMTSLKPEDTAVDYCAAESYYSDGYPGVDYWGQATQVTVSS | high polyreactivity
QVQLVESGGGLVQAGGGRRGSGAAAGSIFAWYAMGWYRQAPGTERELVATITWSGGSTYYADSVKGRFTISRDIAKNTVYLQMNSLKREDTAVYYCAAEVVGIWYDLWYQGDYWGQGTQVTVSS | low polyreactivity
QVQLVESGGGLVQAGGILRISCAASGRTFASNAMGWYRRAPGKERELVAAMSSSGGRTYYADSVKGRITISRDNAKNTVYLQMNSLKPEYTPVFYCAKVGPVYKYDYWGQGTQVTVSS | high polyreactivity
QVQLVESGGGLVQAGGILRLICAASGITFVSYGMVWYRQAPRKERELVAAITRSGGSTYYADSVKGRFTISRDNAKNTVYLQMNSLKPDDTAVYYCNARTRYASKGGGARWDSYGYWGQGTQVTVSS | high polyreactivity
QVQLVESGGGLVQAGGILRLICAASGRTFRYNAMGWYIQAPGKERELVASINSRGDSTYYADSVKGRFTISRDNAKNTVYLQMNSLKPEDTAVYYCNKRIGVGAYYVRYGYWGQGTQVTVSS | high polyreactivity
QVQLVESGGGLVQAGGILRLICDASGFIIGYYAMGWYRQAPGKERELVAAISKSGGRTRYADSVKGRFTISRDNAKNTVYLQMNSLKPEDTAVYYCATYDPARSTQGYDYWGQGTQVTVSS | high polyreactivity
QVQLVESGGGLVQAGGILRLSAASGSTLAGNTMGWYRQAPGKERELVAAINDSGGSTYYADSVKGRFTISRDNAKNTVYLQMNSLKPEDTAVYYCNADGSAYIEDGYDYWGQGTQVTVSS | low polyreactivity
QVQLVESGGGLVQAGGILRLSCAAAGGTLYYYMGWYRQAPGKESEFVAAINIRGDSTYYADSVKGRFTISRDNAKNTVYLQMNSLKPEDTAVYYCAADLPRRSAHYYYWGQGTLVTVSS | low polyreactivity
QVQLVESGGGLVQAGGILRLSCAASGFIFAYYAMGWYRQAPGKERELVAAITRRGGSTSYADSVKGRFTISRDNAKNTVYLQMNSLKPEDTAVYYCNAVSKYDYGYWGQGTQVTVSS | high polyreactivity
QVQLVESGGGLVQAGGILRLSCAASGFIFRRYAMGWYRQEPGKERELVAAINYSGGSTYYADSVKGRFTISRDNAKNTVYLKMNSLKPEDTAVYYCAAGSRRGIDPGSDYWGQGNQVTVSS | low polyreactivity
QVQLVESGGGLVQAGGILRLSCAASGFIFVRYAMGWYRQAPGKERELVAAISWRGGSTYYADSVKGRFTISRDNAKNTVYLQMNSLKPEDTAVFYCSAVTWVHRYSRFHPFVAFDYWGQGTQVTVSS | high polyreactivity
QVQLVESGGGLVQAGGILRLSCAASGFTFTRNAKGRYRQAPGKERELVAAISSGGRTYYADSVKGRFTISRDNAKNTVYLQMNSLKPEDTAVYYCPTTIWGPVEGYDYWGQGTQETVSS | high polyreactivity
QVQLVESGGGLVQAGGILRLSCAASGIIFYYYAMGWYRQAPGKEMELVAGIRARGGITYYADSVKGRFTISRDNAKNTVYLLMNSLKPVDTAVYYCAKSTRPVSGVPDGPLYEYWGQGTQVTVSS | low polyreactivity
QVQLVESGGGLVQAGGILRLSCAASGLIFKYNAMGWYRQAPGKERELVAAISTSGGSTYYADSVKGRFTISRDNAKNTVYLQMNSLKPEDTAVYYCNVAYIKTRLFRPYDYWGQGTQVTVSS | high polyreactivity
QVQLVESGGGLVQAGGILRLSCAASGLTFAKYAMGWYRQAPGKERELVAAITKSSGSTYYADSVKGRFTISRDNAKNTVYFQMNSLKPEDTAVYYCAAGIYAFRRHREEYHYWGQGTQVTVSS | high polyreactivity
QVQLVESGGGLVQAGGILRLSCAASGLTFYYYSMGWYRQAPGKERELVAAINSSGGITFYADSVKGRFTISRDNAKNTVYLQMNSLKPEDTAVYYCAAGGRSKRYGYWGQGTQVTVSS | low polyreactivity

From the nanobody polyreactivity screen of Harvey et al. (2022)
